T1: human MOG (hMOG) expressed on HEK293, Expi293F or L929 cells (human, UniProt Q16653 30-247)
T1 construct: also called hMOG/HEK293; hMOG/HEK293F
T1 chain: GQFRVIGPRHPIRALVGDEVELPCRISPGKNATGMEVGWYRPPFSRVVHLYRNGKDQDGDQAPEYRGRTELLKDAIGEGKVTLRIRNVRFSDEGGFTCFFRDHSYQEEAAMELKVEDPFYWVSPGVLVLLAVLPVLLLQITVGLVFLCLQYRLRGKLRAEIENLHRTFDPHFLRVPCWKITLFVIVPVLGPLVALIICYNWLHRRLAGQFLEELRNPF


Experiments:
[1] = target: T2, extracellular domain protein of rat MOG to which GST is added at the C-terminus (rMOG-GST) (rat); experiment: SPR as in Example 8 (antibody captured, rMOG-GST analyte)
T2 construct: whole construct entry
Procedure: The antibodies were immobilized on CM5 sensor chips using a Human antibody Capture kit, and the binding abilities were evaluated using rMOG-GST produced in Example 4 as an analyte. The obtained sensorgrams were analyzed with BIA evaluation software, and the dissociation constants (KD values) were thus calculated.
Binding of the bispecific antibodies obtained in Example 6 and Example 16 to MOG was evaluated by the same method as that of Example 8.

[2] = target: T1, human MOG (hMOG) expressed on HEK293, …; experiment: flow cytometry on L929 cells expressing human MOG (hMOG/L929); antibody titrated, RPE-labelled goat anti-human antibody
Text: pEF6_hMOG obtained in Example 5 was introduced to mouse connective tissue-derived fibroblast L929 cells [American Type Culture Collection (ATCC) No.: CCL-1] using HilyMax (manufactured by Dojindo Laboratories). The gene-transfected cells were selected using an antibiotic substance, Blasticidin (manufactured by Invitrogen) and then cloned by the limiting dilution method. Using the L929 cells expressing hMOG on the cell surface (abbreviated as hMOG/L929 below), the reactivities of the bispecific antibodies were analyzed by the method described below.
The hMOG/L929 cells were suspended in a Staining Buffer (SB) of PBS containing 0.1% NaN₃ and 1% FBS and dispensed to a round-bottom 96-well plate (manufactured by Becton Dickinson). […] After suspending the pellets, the plate was left to stand at ice temperature for 30 minutes. The supernatants were removed after further centrifugation (2000 rpm, 4° C., two minutes), and the pellets were washed with SB. Then, 1 μg/mL RPE fluorescently labeled goat anti-human antibody (manufactured by Southern Biotech) was added, and the plate was incubated at ice temperature for 30 minutes. After washing with SB, the cells were suspended in SB, and the fluorescence intensities of the cells were measured with a flow cytometer FACS CANTO II (manufactured by Becton Dickinson). The results are shown in FIGS. 12A to 12C and FIGS. 13A and 13B.

T2 sequence (chain, as listed by the source limits assumed): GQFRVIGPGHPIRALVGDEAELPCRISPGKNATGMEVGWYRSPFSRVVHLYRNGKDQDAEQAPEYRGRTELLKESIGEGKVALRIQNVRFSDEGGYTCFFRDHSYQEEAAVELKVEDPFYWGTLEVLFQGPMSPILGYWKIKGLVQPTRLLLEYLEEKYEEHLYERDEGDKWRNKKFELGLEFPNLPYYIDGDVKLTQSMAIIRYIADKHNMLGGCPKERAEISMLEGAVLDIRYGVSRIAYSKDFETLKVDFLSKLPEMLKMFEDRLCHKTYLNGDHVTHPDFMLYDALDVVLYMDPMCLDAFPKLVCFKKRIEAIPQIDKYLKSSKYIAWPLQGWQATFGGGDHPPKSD

| Binder | Kd [1] [nM] | koff [1] [s⁻¹] | kon [1] [M⁻¹ s⁻¹] | binding result [2] |
| --- | --- | --- | --- | --- |
| AVM-MOG01 IgG4PE(R409K) antibody (bispecific antibody, copies: 1 + 1 + 1 + 1) heavy 1: EVQLVESGGGLVQPGRSLKLSCAASGFTFSNYAMAWVRRAPTKGLEWVASISNGGGNTYYRDSVKGRFTISRDDAKNTLYLQMDSLRSEDTATYYCARHGNYIYYGSFFDYWGQGVMVTVSSASTKGPSVFPLAPCSRSTSESTAALGCLVKDYFPEPVTVSWNSGALTSGVHTFPAVLQSSGLYSLSSVVTVPSSSLGTKTYTCNVDHKPSNTKVDKRVESKYGPPCPPCPAPEFEGGPSVFLFPPKPKDTLMISRTPEVTCVVVDVSQEDPEVQFNWYVDGVEVHNAKTKPREEQFNSTYRVVSVLTVLHQDWLNGKEYKCKVSNKGLPSSIEKTISKAKGQPREPQVYTLPPCQEEMTKNQVSLWCLVKGFYPSDIAVEWESNGQPENNYKTTPPVLDSDGSFFLYSKLTVDKSRWQEGNVFSCSVMHEALHNHYTQKSLSLSLGKDYKDDDDK heavy 2: QVQLQQSGAGLLKPSETLSLTCAVSGGSFSGYYWTWIRQRPGKGLEWIGEINHRGSTDYNPSLKSRVTMSIDTSKSQFSLNLKSVTAADTAVYYCARAAWGSCYDGTCYPAEYFQYWGQGTLVTVSSASTKGPSVFPLAPCSRSTSESTAALGCLVKDYFPEPVTVSWNSGALTSGVHTFPAVLQSSGLYSLSSVVTVPSSSLGTKTYTCNVDHKPSNTKVDKRVESKYGPPCPPCPAPEFEGGPSVFLFPPKPKDTLMISRTPEVTCVVVDVSQEDPEVQFNWYVDGVEVHNAKTKPREEQFNSTYRVVSVLTVLHQDWLNGKEYKCKVSNKGLPSSIEKTISKAKGQPREPQVCTLPPSQEEMTKNQVSLSCAVKGFYPSDIAVEWESNGQPENNYKTTPPVLDSDGSFFLVSKLTVDKSRWQEGNVFSCSVMHEALHNHYTQKSLSLSLGKHHHHHH light 1: QFVLSQPNSVSTNLGSTVKLSCKRSTGNIGSNYVSWYQQHEGRSPTTMIYRDDKRPDGVPDRFSGSIDRSSDSALLTINNVQTEDEADYFCQSYSSGINIFGGGTKLTVLGQPKAAPSVTLFPPSSEELQANKATLVCLISDFYPGAVTVAWKADSSPVKAGVETTTPSKQSNNKYAASSYLSLTPEQWKSHRSYSCQVTHEGSTVEKTVAPTECS light 2: QSALTQPASVSGSPGQSITISCTGTSRDVGGYNYVSWYQQHPGKAPKLMIYDVNNRPSGVSNRFSGSKSGNTASLTISGLQAEDEADYFCSSYTSSSTPVVFGGGTKLTVLGQPKAAPSVTLFPPSSEELQANKATLVCLISDFYPGAVTVAWKADSSPVKAGVETTTPSKQSNNKYAASSYLSLTPEQWKSHRSYSCQVTHEGSTVEKTVAPTECS | 12 | 0.0016 | 130000 | binds |
| AVM IgG4PE(R409K)_AVM Fab ANTIBODY (antibody) heavy 1: not shown heavy 2: EVQLVESGGGLVQPGRSLKLSCAASGFTFSNYAMAWVRRAPTKGLEWVASISNGGGNTYYRDSVKGRFTISRDDAKNTLYLQMDSLRSEDTATYYCARHGNYIYYGSFFDYWGQGVMVTVSSASTKGPSVFPLAPCSRSTSESTAALGCLVKDYFPEPVTVSWNSGALTSGVHTFPAVLQSSGLYSLSSVVTVPSSSLGTKTYTCNVDHKPSNTKVDKRV light: QFVLSQPNSVSTNLGSTVKLSCKRSTGNIGSNYVSWYQQHEGRSPTTMIYRDDKRPDGVPDRFSGSIDRSSDSALLTINNVQTEDEADYFCQSYSSGINIFGGGTKLTVLGQPKAAPSVTLFPPSSEELQANKATLVCLISDFYPGAVTVAWKADSSPVKAGVETTTPSKQSNNKYAASSYLSLTPEQWKSHRSYSCQVTHEGSTVEKTVAPTECS |  |  |  | no binding |
| AVM IgG4PE(R409K)_MOG01dscFv11 antibody (bispecific antibody, also called pCI-AVM-hLG4PE(R409K)_MOG01scFv11) heavy: not shown light: QFVLSQPNSVSTNLGSTVKLSCKRSTGNIGSNYVSWYQQHEGRSPTTMIYRDDKRPDGVPDRFSGSIDRSSDSALLTINNVQTEDEADYFCQSYSSGINIFGGGTKLTVLGQPKAAPSVTLFPPSSEELQANKATLVCLISDFYPGAVTVAWKADSSPVKAGVETTTPSKQSNNKYAASSYLSLTPEQWKSHRSYSCQVTHEGSTVEKTVAPTECS |  |  |  | binds |
| AVM IgG4PE(R409K)_MOG01sscFv antibody (bispecific antibody, copies: 1 + 1 + 2) heavy 1: EVQLVESGGGLVQPGRSLKLSCAASGFTFSNYAMAWVRRAPTKGLEWVASISNGGGNTYYRDSVKGRFTISRDDAKNTLYLQMDSLRSEDTATYYCARHGNYIYYGSFFDYWGQGVMVTVSSASTKGPSVFPLAPCSRSTSESTAALGCLVKDYFPEPVTVSWNSGALTSGVHTFPAVLQSSGLYSLSSVVTVPSSSLGTKTYTCNVDHKPSNTKVDKRVESKYGPPCPPCPAPEFEGGPSVFLFPPKPKDTLMISRTPEVTCVVVDVSQEDPEVQFNWYVDGVEVHNAKTKPREEQFNSTYRVVSVLTVLHQDWLNGKEYKCKVSNKGLPSSIEKTISKAKGQPREPQVYTLPPCQEEMTKNQVSLWCLVKGFYPSDIAVEWESNGQPENNYKTTPPVLDSDGSFFLYSKLTVDKSRWQEGNVFSCSVMHEALHNHYTQKSLSLSLGGGSGGGGSGGGGSGGGGSQVQLQQSGAGLLKPSETLSLTCAVSGGSFSGYYWTWIRQRPGKGLEWIGEINHRGSTDYNPSLKSRVTMSIDTSKSQFSLNLKSVTAADTAVYYCARAAWGSCYDGTCYPAEYFQYWGQGTLVTVSSGGGGSGGRASGGGGSQSALTQPASVSGSPGQSITISCTGTSRDVGGYNYVSWYQQHPGKAPKLMIYDVNNRPSGVSNRFSGSKSGNTASLTISGLQAEDEADYFCSSYTSSSTPVVFGGGTKLTVLDYKDDDDK heavy 2: EVQLVESGGGLVQPGRSLKLSCAASGFTFSNYAMAWVRRAPTKGLEWVASISNGGGNTYYRDSVKGRFTISRDDAKNTLYLQMDSLRSEDTATYYCARHGNYIYYGSFFDYWGQGVMVTVSSASTKGPSVFPLAPCSRSTSESTAALGCLVKDYFPEPVTVSWNSGALTSGVHTFPAVLQSSGLYSLSSVVTVPSSSLGTKTYTCNVDHKPSNTKVDKRVESKYGPPCPPCPAPEFEGGPSVFLFPPKPKDTLMISRTPEVTCVVVDVSQEDPEVQFNWYVDGVEVHNAKTKPREEQFNSTYRVVSVLTVLHQDWLNGKEYKCKVSNKGLPSSIEKTISKAKGQPREPQVCTLPPSQEEMTKNQVSLSCAVKGFYPSDIAVEWESNGQPENNYKTTPPVLDSDGSFFLVSKLTVDKSRWQEGNVFSCSVMHEALHNHYTQKSLSLSLGKHHHHHH light: QFVLSQPNSVSTNLGSTVKLSCKRSTGNIGSNYVSWYQQHEGRSPTTMIYRDDKRPDGVPDRFSGSIDRSSDSALLTINNVQTEDEADYFCQSYSSGINIFGGGTKLTVLGQPKAAPSVTLFPPSSEELQANKATLVCLISDFYPGAVTVAWKADSSPVKAGVETTTPSKQSNNKYAASSYLSLTPEQWKSHRSYSCQVTHEGSTVEKTVAPTECS | 200 | 0.01 | 51000 | binds |
| AVM IgG4PE(R409K)_AVMsscFv ANTIBODY (antibody) heavy 1: EVQLVESGGGLVQPGRSLKLSCAASGFTFSNYAMAWVRRAPTKGLEWVASISNGGGNTYYRDSVKGRFTISRDDAKNTLYLQMDSLRSEDTATYYCARHGNYIYYGSFFDYWGQGVMVTVSSASTKGPSVFPLAPCSRSTSESTAALGCLVKDYFPEPVTVSWNSGALTSGVHTFPAVLQSSGLYSLSSVVTVPSSSLGTKTYTCNVDHKPSNTKVDKRVESKYGPPCPPCPAPEFEGGPSVFLFPPKPKDTLMISRTPEVTCVVVDVSQEDPEVQFNWYVDGVEVHNAKTKPREEQFNSTYRVVSVLTVLHQDWLNGKEYKCKVSNKGLPSSIEKTISKAKGQPREPQVYTLPPCQEEMTKNQVSLWCLVKGFYPSDIAVEWESNGQPENNYKTTPPVLDSDGSFFLYSKLTVDKSRWQEGNVFSCSVMHEALHNHYTQKSLSLSLGGGSGGGGSGGGGSGGGGSEVQLVESGGGLVQPGRSLKLSCAASGFTFSNYAMAWVRRAPTKGLEWVASISNGGGNTYYRDSVKGRFTISRDDAKNTLYLQMDSLRSEDTATYYCARHGNYIYYGSFFDYWGQGVMVTVSSGGGGSGGRASGGGGSQFVLSQPNSVSTNLGSTVKLSCKRSTGNIGSNYVSWYQQHEGRSPTTMIYRDDKRPDGVPDRFSGSIDRSSDSALLTINNVQTEDEADYFCQSYSSGINIFGGGTKLTVLDYKDDDDK heavy 2: EVQLVESGGGLVQPGRSLKLSCAASGFTFSNYAMAWVRRAPTKGLEWVASISNGGGNTYYRDSVKGRFTISRDDAKNTLYLQMDSLRSEDTATYYCARHGNYIYYGSFFDYWGQGVMVTVSSASTKGPSVFPLAPCSRSTSESTAALGCLVKDYFPEPVTVSWNSGALTSGVHTFPAVLQSSGLYSLSSVVTVPSSSLGTKTYTCNVDHKPSNTKVDKRVESKYGPPCPPCPAPEFEGGPSVFLFPPKPKDTLMISRTPEVTCVVVDVSQEDPEVQFNWYVDGVEVHNAKTKPREEQFNSTYRVVSVLTVLHQDWLNGKEYKCKVSNKGLPSSIEKTISKAKGQPREPQVCTLPPSQEEMTKNQVSLSCAVKGFYPSDIAVEWESNGQPENNYKTTPPVLDSDGSFFLVSKLTVDKSRWQEGNVFSCSVMHEALHNHYTQKSLSLSLGKHHHHHH light: QFVLSQPNSVSTNLGSTVKLSCKRSTGNIGSNYVSWYQQHEGRSPTTMIYRDDKRPDGVPDRFSGSIDRSSDSALLTINNVQTEDEADYFCQSYSSGINIFGGGTKLTVLGQPKAAPSVTLFPPSSEELQANKATLVCLISDFYPGAVTVAWKADSSPVKAGVETTTPSKQSNNKYAASSYLSLTPEQWKSHRSYSCQVTHEGSTVEKTVAPTECS |  |  |  | no binding |

Source: patent US20260092110A1 (Kyowa Kirin, published 2026)
